Reference: patent publication US20220168438A1 (Daiichi Sankyo, published 2022)

T1: human CLDN4 (human, UniProt O14493 1-209)
T1 construct: whole, on cells
T1 sequence (looked up): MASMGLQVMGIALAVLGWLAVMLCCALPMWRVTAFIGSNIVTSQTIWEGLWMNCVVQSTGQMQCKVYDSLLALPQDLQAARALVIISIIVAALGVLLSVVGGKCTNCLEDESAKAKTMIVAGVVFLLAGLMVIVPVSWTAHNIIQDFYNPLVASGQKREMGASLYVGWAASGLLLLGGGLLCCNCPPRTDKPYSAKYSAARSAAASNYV

T2: human CLDN3 (human, UniProt O15551 1-220)
T2 construct: whole, on cells
T2 sequence (looked up): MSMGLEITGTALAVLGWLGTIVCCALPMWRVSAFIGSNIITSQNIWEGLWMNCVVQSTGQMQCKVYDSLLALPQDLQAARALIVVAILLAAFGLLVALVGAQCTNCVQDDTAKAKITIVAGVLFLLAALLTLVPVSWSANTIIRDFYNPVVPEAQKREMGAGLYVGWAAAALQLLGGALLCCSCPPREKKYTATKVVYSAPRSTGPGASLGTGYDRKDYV

T3: human CLDN9 (human, UniProt O95484 1-217)
T3 construct: Expressed on 293T cells from human CLDN9/pCMV6-Entry (OriGene); Transfection was confirmed with an anti-FLAG antibody
T3 sequence: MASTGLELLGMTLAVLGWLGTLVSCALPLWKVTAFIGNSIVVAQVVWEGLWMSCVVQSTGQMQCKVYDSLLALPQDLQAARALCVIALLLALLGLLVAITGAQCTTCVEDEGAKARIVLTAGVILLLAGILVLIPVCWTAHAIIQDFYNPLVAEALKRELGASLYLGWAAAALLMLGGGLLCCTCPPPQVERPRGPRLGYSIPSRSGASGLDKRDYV

T4: human CLDN6 (human, UniProt P56747 1-220)
T4 construct: Four-transmembrane protein; It was expressed on 293T cells from human CLDN6/pCMV-Entry (OriGene) and on CHO-K1 cells by cDNA transfection; it was endogenous in the NTERA-2 lysate used for immunoprecipitation; also called claudin-6; human claudin-6
T4 sequence: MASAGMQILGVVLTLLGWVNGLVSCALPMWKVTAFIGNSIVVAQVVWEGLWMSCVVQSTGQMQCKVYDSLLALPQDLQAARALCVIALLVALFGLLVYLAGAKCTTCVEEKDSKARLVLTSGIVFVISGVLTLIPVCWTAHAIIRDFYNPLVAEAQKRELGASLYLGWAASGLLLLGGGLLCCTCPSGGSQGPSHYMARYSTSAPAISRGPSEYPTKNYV


Assays:
human CLDN4 = target: T1, human CLDN4; assay: flow cytometry on transiently transfected 293T cells
Protocol: (§1) Binding activity of the mouse anti-CLDN6 antibodies produced in Example 6 to human CLDN6 and its family molecules, CLDN3, CLDN4, and CLDN9, was evaluated by using a flow cytometry method. Human CLDN3/pCMV6-Entry, human CLDN4/pCMV6-Entry, human CLDN6/pCMV-Entry, human CLDN9/pCMV6-Entry, or pCMV6-Entry purchased from OriGene Technologies, Inc. was transiently transferred into 293T cells (Thermo Fisher Scientific, HCL4517) by using Lipofectamine 2000 (Thermo Fisher Scientific), and the cells were cultured under conditions of 37° C. and 5% CO₂ overnight, and then a cell suspension was prepared. The transfected 293T cell suspension was centrifuged to remove the supernatant, and a mouse anti-CLDN6 antibody (clone number: B1 or C7) or a mouse IgG1 control antibody (R&D Systems, Inc.) was then added and suspended to a final concentration of 30 μg/mL, 10 μg/mL, 3.3 μg/mL, or 1.1 μg/mL, and the resultant was left to stand at 4° C. for 1 hour. The cells were washed twice with Dulbecco's phosphate buffered saline (Sigma-Aldrich Co. LLC) containing 5% fetal bovine serum (Hyclone) (hereinafter, referred to as 5% FBS-containing PBS), and FLUORESCEIN-CONJUGATED GOAT IGG FRACTION TO MOUSE IGG (WHOLE MOLECULE) (MP Biomedicals, Inc.) 500-fold diluted with 5% FBS-containing PBS was then added thereto, and the cells were suspended and left to stand at 4° C. for 1 hour. After washing twice with 5% FBS-containing PBS, detection was carried out by using a flow cytometer (FC500; Beckman Coulter, Inc.). Data analysis was carried out by using FlowJo (Tree Star, Inc.). To confirm each transfection, the cells were permeabilized with 0.25% Tween 20-containing PBS, and then a mouse anti-FLAG antibody (Sigma-Aldrich Co. LLC) was used. […] In each graph in FIG. 11, the ordinate represents FITC fluorescence intensity indicating the amount of the binding antibody and the abscissa represents antibody concentrations.
(§2) The binding activity of the humanized anti-CLDN6 antibody produced in Example 10 to human CLDN6 and its family molecules, CLDN3, CLDN4, and CLDN9, was evaluated by using a flow cytometry method.

human CLDN3 = target: T2, human CLDN3; assay: as above
Protocol: as §1, §2

human CLDN9 [1] = target: T3, human CLDN9; assay: flow cytometry on transiently transfected 293T cells, 1.1-30 µg/mL
Protocol: Binding activity of the mouse anti-CLDN6 antibodies produced in Example 6 to human CLDN6 and its family molecules, CLDN3, CLDN4, and CLDN9, was evaluated by using a flow cytometry method. Human CLDN3/pCMV6-Entry, human CLDN4/pCMV6-Entry, human CLDN6/pCMV-Entry, human CLDN9/pCMV6-Entry, or pCMV6-Entry purchased from OriGene Technologies, Inc. was transiently transferred into 293T cells (Thermo Fisher Scientific, HCL4517) by using Lipofectamine 2000 (Thermo Fisher Scientific), and the cells were cultured under conditions of 37° C. and 5% CO₂ overnight, and then a cell suspension was prepared. The transfected 293T cell suspension was centrifuged to remove the supernatant, and a mouse anti-CLDN6 antibody (clone number: B1 or C7) or a mouse IgG1 control antibody (R&D Systems, Inc.) was then added and suspended to a final concentration of 30 μg/mL, 10 μg/mL, 3.3 μg/mL, or 1.1 μg/mL, and the resultant was left to stand at 4° C. for 1 hour. […] In each graph in FIG. 11, the ordinate represents FITC fluorescence intensity indicating the amount of the binding antibody and the abscissa represents antibody concentrations.

human CLDN6 [2] = target: T4, human CLDN6; assay: immunoprecipitation from NTERA-2 cell lysate with 218B1, SDS-PAGE, mass spectrometry of the 18 kDa band
Protocol: 2×10⁷ NTERA-2 cells were collected and washed twice with PBS. The cells were collected by using a cell scraper, and centrifuged at 1500 rpm for 5 minutes. After the supernatant was removed, the cells were resuspended in 2 mL of the lysis buffer, and treated at 4° C. for 30 minutes. The resultant was centrifuged (13000 rpm, 20 minutes, 4° C.) to prepare a cell lysate. Protein G Sepharose/lysis buffer (50% slurry; 180 μL) was added to the cell lysate, and the resultant was rotated at 4° C. for 30 minutes and then centrifuged at 4° C. for 1 hour, and the supernatant was collected. The 218B1 antibody (about 9 μg) was added to the supernatant, and the resultant was rotated at 4° C. for 30 minutes, to which Protein G Sepharose/lysis buffer (50% slurry; 180 μL) was then added, and the resultant was rotated at 4° C. for 1 hour. The Protein G Sepharose was washed six times with the lysis buffer (1 mL), and then resuspended in 1×SDS sample buffer. After the suspension was treated at 100° C. for 5 minutes, the solution was collected as a sample for SDS-PAGE. SDS-PAGE was carried out in the same manner as in 2-2), and the electrophoresis gel was stained with CBB. The part corresponding to 18 kDa was cut out of the electrophoresis gel, and subjected to mass spectrometry.

human CLDN6 [3] = target: T4, human CLDN6; assay: FACS on CHO-K1 cells transfected with human claudin-6 cDNA
human CLDN6 [4] = target: T4, human CLDN6; assay: flow cytometry on transiently transfected 293T cells, 0.8-100 nM
Protocol: (§3) The binding activity of the humanized anti-CLDN6 antibody produced in Example 10 to human CLDN6 and its family molecules, CLDN3, CLDN4, and CLDN9, was evaluated by using a flow cytometry method. Used were 293T cells transiently transfected in the same manner as in Example 7-1. To cells into which a human CLDN6 or human CLDN9 gene had been transferred, the humanized anti-CLDN6 antibody H1L1, H2L2, H1L3, H2L4, or H3L3, or a human IgG1 control antibody (Calbiochem) was added and suspended to a final concentration of 100 nM, 20 nM, 4 nM, or 0.8 nM, and the resultant was left to stand at 4° C. for 30 minutes. To cells into which a human CLDN3 or human CLDN4 gene, or an empty vector had been transferred, the humanized anti-CLDN6 antibody H1L1, H2L2, H1L3, H2L4, or H3L3 was added and suspended to a final concentration of 100 nM, and the resultant was left to stand at 4° C. for 30 minutes. The cells were washed with Dulbecco's phosphate buffered saline (Sigma-Aldrich Co. LLC) containing 5% fetal bovine serum (Hyclone) (hereinafter, referred to as 5% FBS-containing PBS), and FITC AffiniPureF (ab′)2 Fragment Goat Anti-Human IgG (H+L) (Jackson ImmunoResearch Laboratories Inc.) 150-fold diluted with 5% FBS-containing PBS was then added thereto, and the cells were suspended and left to stand at 4° C. for 30 minutes. After washing with 5% FBS-containing PBS, detection was carried out by using a flow cytometer (FC500; Beckman Coulter, Inc.). Data analysis was carried out by using FlowJo (Tree Star, Inc.), and mean fluorescence intensity (MFI) of FITC, which indicates the amount of the binding antibody, was calculated. […] In each graph in FIG. 13, the abscissa represents antibody concentrations and the ordinate represents MFI.

human CLDN9 [5] = target: T3, human CLDN9; assay: as above
Protocol: as §3

binding result (human CLDN9 [1]) | binding result (human CLDN6 [2]) | binding result (human CLDN6 [3]) | binding result (human CLDN6 [4]) | binding result (human CLDN9 [5]) | Binder | binding result (human CLDN4) | binding result (human CLDN3)
binds | binds | – | – | – | mouse anti-CLDN6 antibody B1 (antibody, V domains shown, Mouse monoclonal antibody purified from hybridoma 218B1 culture supernatant; also called B1 antibody; 218B1) VH: EVQLQQSGPELVKPGASVKISCKTSGYTFTEYTMHWVQQSHGKSLEWIGGVNPNSGDTSYNQKFKGKATLTVDKSSSTAYMELRSLTSEDSAVYYCARPGGYDVGYYAMDYWGQGTSVTVSS VL: DIQMTQTASSLSASLGDRVTISCRASQDINNYLNWYQQKPDGTVKLLIYFTSRLHSGVPSRFSGSGSGTHYSLTITNLEQEDIATYFCQQGYPLPWTFGGGTKLEIK | no binding (tested: 30 µg/mL (highest concentration tested)) | no binding (tested: 30 µg/mL (highest concentration tested))
binds | – | binds | – | – | mouse anti-CLDN6 antibody C7 (antibody, V domains shown, Mouse monoclonal antibody purified from hybridoma 218C7 culture supernatant; also called C7 antibody; 218C7) VH: EVQLQQSGPELVKPGASVKISCKTSGYTFTEYTMHWVQQSHGKSLEWIGGVNPNSGDTSYNQKFKGKATLTVDKSSSTAYMELRSLTSEDSAVYYCARPGGYDVGYYAMDYWGQGTSVTVSS VL: DIQMTQTASSLSASLGDRVTISCRASQDINNYLNWYQQKPDGTVKLLIYSTSRLHSGVPSRFSGSGSGTHYSLTITHLEQEDIATYFCQQGYPLPWTFGGGTKLEIK | no binding (tested: 30 µg/mL (highest concentration tested)) | no binding (tested: 30 µg/mL (highest concentration tested))
– | – | – | binds | binds | humanized anti-CLDN6 antibody H1L3 (antibody, human IgG1, kappa, L234A L235A, V domains shown, Human IgG1 LALA heavy chain and human kappa light chain; also called H1L3 antibody; hH1 + hL3) VH: QVQLVQSGAEVKKPGASVKVSCKASGYTFTEYTMHWVRQAPGQGLEWMGGVNPNSGDTSYAQKFQGRVTITADTSTSTAYMELSSLRSEDTAVYYCARPGGYDVGYYAMDYWGQGTLVTVSS VL: DIQMTQSPSSLSASVGDRVTITCRASQDINNYLNWYQQKPGGAVKLLIYFTSRLHSGVPSRFSGSGSGTDYTLTISSLQPEDFATYYCQQGYPLPWTFGGGTKVEIKR | no binding (tested: 100 nM) | no binding (tested: 100 nM)
